Assays:
[1] = target: BbhV (GH84 β-N-acetylglucosaminidase of Bifidobacterium bifidum JCM 1254), residues 35-1111, C-terminal His6 (Bifidobacterium bifidum JCM 1254); experiment: SEC; Superdex 200 Increase 10/300 GL; 10 mM Tris-HCl pH 8.0, 150 mM NaCl; native mass estimated against thyroglobulin, ferritin, aldolase and conalbumin standards
BbhV = target: T1, BbhV (Bifidobacterium bifidum, UniProt A0ABN5UYD8); experiment: initial velocities, p-nitrophenolate release ([…] nm), Michaelis-Menten fit; assay type: biochemical; conditions: 0.1-5.0 mM substrate; McIlvaine buffer, pH optimum 5.5 (pH and temperature of the kinetics not stated)
T1 construct: gene BBBF_1623; residues 35-1111 of 1139 aa, signal peptide and C-terminal TM region removed, C-terminal His6 tag kept; E. coli; 171 kDa by SEC, dimer
T1 sequence (A0ABN5UYD8 entry or part of it): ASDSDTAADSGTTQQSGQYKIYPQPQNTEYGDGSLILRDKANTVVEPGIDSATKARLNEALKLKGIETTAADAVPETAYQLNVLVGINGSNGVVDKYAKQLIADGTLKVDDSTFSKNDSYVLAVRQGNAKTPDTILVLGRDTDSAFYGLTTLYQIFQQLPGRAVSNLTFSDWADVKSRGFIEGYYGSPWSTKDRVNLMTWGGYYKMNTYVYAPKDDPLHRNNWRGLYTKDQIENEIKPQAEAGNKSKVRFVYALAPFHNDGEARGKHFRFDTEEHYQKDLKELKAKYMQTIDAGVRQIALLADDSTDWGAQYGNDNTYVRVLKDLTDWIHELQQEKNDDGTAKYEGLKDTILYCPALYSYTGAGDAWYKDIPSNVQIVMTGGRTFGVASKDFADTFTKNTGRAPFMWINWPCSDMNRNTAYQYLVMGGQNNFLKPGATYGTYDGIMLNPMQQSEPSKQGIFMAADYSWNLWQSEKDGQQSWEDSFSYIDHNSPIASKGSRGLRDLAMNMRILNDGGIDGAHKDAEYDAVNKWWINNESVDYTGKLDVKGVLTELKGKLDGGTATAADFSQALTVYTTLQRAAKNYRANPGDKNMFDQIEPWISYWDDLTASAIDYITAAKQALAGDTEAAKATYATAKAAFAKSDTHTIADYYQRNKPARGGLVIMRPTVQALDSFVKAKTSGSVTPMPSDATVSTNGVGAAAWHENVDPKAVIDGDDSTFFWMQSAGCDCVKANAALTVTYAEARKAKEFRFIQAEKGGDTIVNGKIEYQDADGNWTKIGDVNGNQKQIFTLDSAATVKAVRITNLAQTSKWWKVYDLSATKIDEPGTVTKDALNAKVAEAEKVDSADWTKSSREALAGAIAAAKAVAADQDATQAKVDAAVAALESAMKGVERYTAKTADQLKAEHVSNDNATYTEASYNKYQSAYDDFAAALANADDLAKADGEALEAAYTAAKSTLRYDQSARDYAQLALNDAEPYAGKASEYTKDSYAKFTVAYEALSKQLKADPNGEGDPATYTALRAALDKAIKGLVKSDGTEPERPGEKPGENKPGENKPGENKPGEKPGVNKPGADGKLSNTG

Row | Compound | stoichiometry N [1] | Km (BbhV) [µM]
1 | BbhV (GH84 β-N-acetylglucosaminidase of Bifidobacterium bifidum JCM 1254), residues 35-1111, C-terminal His6 (enzyme) | 2 | 
2 | CC(=O)N[C@H]1[C@H](Oc2ccc([N+](=O)[O-])cc2)O[C@H](CO)[C@@H](O)[C@@H]1O [GlcNAcβ-pNP] |  | 1000

From article PMC10245121, “GH20 and GH84 β-N-acetylglucosaminidases with different linkage specificities underpin mucin O-glycan breakdown capability of Bifidobacterium bifidum” (The Journal of Biological Chemistry, 2023)
